Data set [1] can be described thus: folding stability dG unfold from chymotrypsin proteolysis; higher = more stable. Put shortly:
(§1)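 K50 was inferred by Bayesian fitting of sequencing counts obtained after protease digestion of designed mini-proteins. Unfolding free energy was derived by comparison with a sequence-predicted unfolded-state K50 and a shared folded-state K50, for each protease or both combined. The mini-proteins were under 80 residues, had no cysteine, were carried in a PA-tagged cDNA display construct, and were kept only if AlphaFold2 dimer inter-PAE exceeded 15.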

Data set [2] can be described thus: folding stability dG unfold from trypsin proteolysis; higher = more stable. Put shortly: as §1
Data set [3] in a line: folding stability dG unfold (combined trypsin and chymotrypsin); higher = more stable. Put shortly: as §1

± gives the half width of the 95% confidence interval.

For the sequence “SMKKILIIVPKEMSEEEVEALVKELLEKLGLPEGAEVEILTEEELEKNPELKKKLEEAEKKGADLVIIIPSA [r9_1147_TrROS_Hall]”, the “folding stability dG unfold” value in data set [1] is 3 ± 0.2 kcal/mol; in data set [2], 3.39 ± 0.32 kcal/mol; in data set [3], 3.12 ± 0.32 kcal/mol.

On to “SMKKIVLIYPESVSPEEAEKIAEEILKKLGLKKGSPVTILPLSEYESNPEMRARIEEAKKKGADIIIEVKSA [r9_1147_JUSTAS]”, for which the “folding stability dG unfold” value in data set [1] is 2.8 ± 0.1 kcal/mol; in data set [2], 2.91 ± 0.15 kcal/mol; in data set [3], 2.78 ± 0.17 kcal/mol.

With “SMKKNTLTLTVKVKVTVTVVKKKKDGKEEVVKKETVEVTVKVTFLSKEELEKLKKELEKLKKELEELKKKSA [r9_1192_TrROS_Hall]”, the “folding stability dG unfold” value in data set [1] was determined as 4.7 ± 0.27 kcal/mol; in data set [2], 2.72 ± 0.27 kcal/mol; in data set [3] it was 3.39 ± 0.75 kcal/mol.

Regarding “SMKKNYKIKIEIIDIKIYNKNIPKNKPKYITIKAKITIYYKNKPYKYTIEIKYKIYNGKIYIIGSKIKPESA [r9_270_TrMRF]”, the “folding stability dG unfold” value in data set [1] worked out at 3.761 ± 0.025 kcal/mol; in data set [2], 3.36 ± 0.1 kcal/mol; in data set [3], 3.66 ± 0.11 kcal/mol.

On to “SMKKPIDLIKKLGYTLTSVTKLPNGTTLITFEHPDSTVTVTVNPDGNIKITTTNPKNGTTTTTTIPVNKLSA [r9_2_JUSTAS]”, for which the “folding stability dG unfold” value in data set [1] worked out at 2.31 ± 0.099 kcal/mol; in data set [2], 1.95 ± 0.08 kcal/mol; in data set [3], 2.08 ± 0.15 kcal/mol.

“SMKMSPEEKLKELAKELAEKLEEETGKKVKVRVTVEYNGKTFEIEIEEGETIEDIRNKFPGLKIKVEIEPSA [r9_513_TrROS_Hall]”: the “folding stability dG unfold” value in data set [1] turned out to be 0.00992 ± 0.22 kcal/mol; in data set [2] it was 1.34 ± 0.17 kcal/mol; in data set [3], 1.08 ± 0.41 kcal/mol.

With “SMKPGAEITIEPFPDGMYKITLPDGRERIFSPNGIAIEITPNKIKIEMFHPGKPIMEMEVEIPPPDPNDPSA [r9_901_TrROS]”, the “folding stability dG unfold” value in data set [1] was 0.771 ± 0.16 kcal/mol; in data set [2], 0.912 ± 0.19 kcal/mol; in data set [3] it was 0.987 ± 0.43 kcal/mol.

Take “SMKPGDTVIVKIEIEKKVDGKTVKKTIEKEIKIKPGETVEIELKGLPKGAKVRVEIFNADGKLIEEKELPSA [r9_478_TrROS_Hall]”: the “folding stability dG unfold” value in data set [1] was found to be 1.46 ± 0.042 kcal/mol; in data set [2], 2.23 ± 0.075 kcal/mol; in data set [3] it was 1.8 ± 0.08 kcal/mol.

With “SMKPGEKLEIEVEIKVEEEDEEKRKKALEEAEEKLRELFEKLGLKDIKKVEVVEVEKLPDGTVKVKIRIDSA [r9_754_TrROS_Hall]”, the “folding stability dG unfold” value is 1.32 ± 0.11 kcal/mol in data set [1], 2.39 ± 0.18 kcal/mol in data set [2] and 1.71 ± 0.24 kcal/mol in data set [3].

“SMKPGELVLVTETETRTFTVTPEDLPPGWKVKEVKVTVTRVALFRVTPDGRVELVEEVTSVEIEVTLEPESA [r9_747_TrROS_Hall]”: the figures for the “folding stability dG unfold” value in data set [1], in data set [2] and in data set [3] were 4.54 ± 0.1 kcal/mol, 4.39 ± 0.42 kcal/mol and 4.52 ± 0.22 kcal/mol, respectively.

For the sequence “SMKPGETVRVTFKTKDGSKIEIEFKNGKPVRITVYNKNGEKVKEIEVTLDELKELAEKLGIEEIVEVEKVSA [r9_1107_TrROS_Hall]”, the “folding stability dG unfold” value in data set [1] stood at 3.44 ± 0.077 kcal/mol; in data set [2], 2.76 ± 0.19 kcal/mol; in data set [3] it was 3.26 ± 0.35 kcal/mol.

As for “SMKTITIPADTLSPEEIEALLKELGFDPEKIKISTEGDKLVVTVPDMIVFLTPPPPVPTVPPTNPERLAALS [r1_57_JUSTAS]”, the entries for the “folding stability dG unfold” value in data set [1], in data set [2] and in data set [3] were -0.141 ± 0.36 kcal/mol, 0.643 ± 0.036 kcal/mol and 0.31 ± 0.15 kcal/mol, respectively.

“SMKTKTVTLDLSPEDPEAARAAVEAAIAEARAADPDTEVTVTVTISPEHPELLAEIEALAAERGVSLVLGSA [r9_1202_JUSTAS]”: the “folding stability dG unfold” value in data set [1] came to 2.84 ± 0.06 kcal/mol; in data set [2], 2.74 ± 0.058 kcal/mol; in data set [3], 2.81 ± 0.097 kcal/mol.

On to “SMKTVTLNFPSLSEEEVRALAEELEATGRYRVEKIDSSTPNIKVTVLEEPPEPRPPPPPALVRDADARAASA [r9_830_JUSTAS]”, for which the “folding stability dG unfold” value was determined as 1.83 ± 0.12 kcal/mol in data set [1], 1.08 ± 0.088 kcal/mol in data set [2] and 1.4 ± 0.12 kcal/mol in data set [3].

Consider “SMKVERERRTIERTLPDGRKVKVEIDLFRPEDGKPWALIKITVTDENGVPTEREILAPAELAEKVIEELFSA [r9_189_TrMRF]”, for which the “folding stability dG unfold” value in data set [1] came out at 1.78 ± 0.039 kcal/mol; in data set [2], 2.34 ± 0.055 kcal/mol; in data set [3], 2.08 ± 0.069 kcal/mol.

Turning to “SMKVIIIERPDESGVPVVIVLPEEEALELYRKLFNVPMSVEEFAEKLKELNPNVKVEVVPLEEVSEEVLLSA [r9_1085_JUSTAS]”, the figures for the “folding stability dG unfold” value in data set [1], in data set [2] and in data set [3] were 2.28 ± 0.058 kcal/mol, 2.23 ± 0.086 kcal/mol and 2.35 ± 0.18 kcal/mol, respectively.

On to “SMKVKPGEKIKVTVLALFYDKETKKLYLVKAEVEATVELDEDGNLTVKVEVKKVEVVEEMPLDELKELLKSA [r9_423_TrROS_Hall]”, for which the “folding stability dG unfold” value in data set [1] was determined as 3.4 ± 0.067 kcal/mol; in data set [2], 2.29 ± 0.14 kcal/mol; in data set [3], 2.97 ± 0.18 kcal/mol.

For the sequence “SMKVVKLYTDPEGRVVIEITLPKPDGTPVSEEEAKAIADEIAAELKPKYPNATFEITYDPKTGVVTITIGSA [r9_485_JUSTAS]”, the “folding stability dG unfold” value in data set [1] is 2.51 ± 0.053 kcal/mol; in data set [2] it was 3.49 ± 0.13 kcal/mol; in data set [3], 2.97 ± 0.1 kcal/mol.

These data come from the supplement of paper PMC12764529.
